Results: patent publication US4493829A, “Bio-available succinylated protein-iron derivatives which do not cause gastric lesions, method of preparation and related pharmaceutical compounds” (Italfarmaco S.p.A., priority 1982, dated 1985)

How the values were obtained:
[1] = Haematic levels after oral administration: Ferrolat-ferrous sulphate comparison; set-up: species or system male Wistar rats; conditions: rat, in vivo, 1 mg/kg
Method: Male Wistar rats, weighing approximately 200 grammes and starved for 18 hours were taken, randomized and separated into groups of 5; each group had been sacrificed at the determined hour and blood was taken from each animal by resecting the carotid; the amount of iron in the blood of each animal of the group was determined spectrophotometrically by means of bathophenanthrolinsulphonic acid (Fe-test, Wako). The administration was carried out by a probe in an acqueous solution (5 ml/kg).
The succinyl ferroprotein derivative which was used was prepared as in example 1 (Ferrolat). It can be seen that the quantity of iron/kg. was the same for both the derivatives (Fe: 1 mg/kg).

[2] = ferritin based treatment; cited from earlier work
[3] = cited from earlier work
[4] = Haematic levels after oral administration: Ferrolat-ferritin comparison; assay type: in vivo, male Wistar rats; conditions: 1 mg/kg Fe oral
Method: Male Wistar rats, weighing approximately 200 grams and starved for 18 hours, were taken, randomized and separated into groups of 9; each group was sacrificed at the determined hour and blood was taken from each animal by resecting the carotid. The amount of iron in the blood of each animal of the group was determined spectrophotometrically by means of the Iron Colorimetric Method (Boehringer-Mannheim). The administration was carried out by a probe in an acqueous solution (5 ml/kg). Dosages and results are shown in table X. It can be seen that the quantity of iron/kg for the succinyl ferroprotein derivative indicated as Ferrolat was that of ferritin (Sigma, St. Louis, Mo.) and equal to 1 mg/kg.

[5] = Haematic levels: comparison between succinyl ferroprotein derivatives from different types of proteins; assay type: in vivo, male Wistar rats; conditions: two hours after administration, 1 mg/kg Fe oral
Method: Male Wistar rats, weighing approximately 200 grams and starved for 18 hours, were taken, randomized and separated into groups of 5 (one per dose of derivative and a control group). Each group was sacrificed two hours after administration and, by resecting the carotid, blood was taken from each animal and the iron content in the blood was determined by means of bathophenanthrolinsulphonic acid Fe-test, Wako). The oral administration was carried out by a probe in an aqueous solution (5 ml/kg). The doses of individual derivatives which were used were selected so that 1 mg/kg of Fe was always administered.

O=S(=O)([O-])[O-].[Fe+2] [FeSO4 7H2 O, ferrous sulphate]
Serum iron ([1]; 0.5 h): 336.27 μg % | Serum iron ([1]; 1 h): 272.14 μg % | Serum iron ([1]; 2 h): 273.56 μg % | Serum iron ([1]; 4 h): 129.50 μg % | Serum iron ([1]; 6 h): 80.52 μg %

Ferritin
gastrointestinal side effects [2]: does not result in the gastrointestinal side effects | solubility in water [3]: soluble in water | Serum iron ([4]; 1 hour after treatment): 168.79 μg/100 ml | Serum iron ([4]; 2 hours after treatment): 170.66 μg/100 ml | Serum iron ([4]; 4 hours after treatment): 148.08 μg/100 ml | Serum iron ([4]; 6 hours after treatment): 89.22 μg/100 ml

B1: Succ. ovalbumin: iron derivatives from succinylated egg proteins (ovalbumin) (protein, UniProt P01012 2-386, looked up)
Ovalbumin: GSIGAASMEFCFDVFKELKVHHANENIFYCPIAIMSALAMVYLGAKDSTRTQINKVVRFDKLPGFGDSIEAQCGTSVNVHSSLRDILNQITKPNDVYSFSLASRLYAEERYPILPEYLQCVKELYRGGLEPINFQTAADQARELINSWVESQTNGIIRNVLQPSSVDSQTAMVLVNAIVFKGLWEKAFKDEDTQAMPFRVTEQESKPVQMMYQIGLFRVASMASEKMKILELPFASGTMSMLVLLPDEVSGLEQLESIINFEKLTEWTSSNVMEERKIKVYLPRMKMEEKYNLTSVLMAMGITDVFSSSANLSGISSAESLKISQAVHAAHAEINEAGREVVGSAEAGVDAASVSEEFRADHPFLFCIKHIATNAVLFFGRCVSP
modifications: 95% succinylated, iron derivative 3.6% Fe
serum iron average values ± SE [5]: 235.82 ± 46.06 μg/100 ml
